Common to all, as to assay: cell-based or functional assay
The target in assay [1] is HIV-1 envelope glycoprotein (Env) of isolate 92RW020, clade A (HIV-1).
The target in assay [2] is HIV-1 Env of pseudovirus MGRM-F1-022 (HIV-1).
Assay [3] addresses HIV-1 envelope glycoprotein (Env) of isolate 92UG037, clade A (HIV-1).
Assay [4] deals with HIV-1 Env of pseudovirus MGRM-G-019 (HIV-1, clade G isolate MGRM-G-019).
Assay [5] concerns the target HIV-1 Env of isolate TRJ0.58 (Acute), clade B, on pseudovirus (HIV-1).
For assay [6], the target named is HIV-1 envelope glycoprotein (Env) of isolate 92RW009, clade A (HIV-1).
For assay [7], the target named is HIV-1 envelope glycoprotein (Env) of isolate MGRM-A-004, clade A (HIV-1).
Assay [8] has as its target HIV-1 Env of isolate 97ZA012 (clade C) (HIV-1 isolate 97ZA012).
The target of assay [9] is HIV-1 CMU02 envelope glycoprotein (Env) on pseudovirus (HIV-1).
Assay [10] deals with HIV-1 Env of isolate MGRM-D-004 (clade D pseudovirus) (HIV-1).
The target in assay [11] is HIV-1 Env of pseudovirus MGRM-Chronic-B-017 (HIV-1).
The target of assay [12] is HIV-1 Env of isolate 92UG024 (clade D pseudovirus) (HIV-1).
Assay [13] deals with HIV-1 94UG114 envelope glycoprotein (Env) on pseudovirus (HIV-1 (isolate 94UG114, clade D)).
The target in assay [14] is HIV-1 Env of isolate MGRM-D-011 (clade D pseudovirus) (HIV-1).
The target in assay [15] is HIV-1 Env of pseudovirus MGRM-G-017 (HIV-1, clade G isolate MGRM-G-017).
In assay [16] the target is HIV-1 Env of isolate MGRM-D-001 (clade D pseudovirus) (HIV-1).
The target of assay [17] is HIV-1 envelope glycoprotein (Env) of isolate MGRM-A-002, clade A (HIV-1).
For assay [18], the target named is HIV-1 Env of pseudovirus MGRM-Chronic-B-010 (HIV-1).

Sequence of 1443_C16 (PG16) (TCN-116) (antibody) (VH): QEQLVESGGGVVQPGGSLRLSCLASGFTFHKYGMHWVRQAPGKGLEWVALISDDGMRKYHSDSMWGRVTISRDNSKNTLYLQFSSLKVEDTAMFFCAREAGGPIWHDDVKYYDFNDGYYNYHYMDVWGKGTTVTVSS
Sequence of 1443_C16 (PG16) (TCN-116) (antibody) (VL): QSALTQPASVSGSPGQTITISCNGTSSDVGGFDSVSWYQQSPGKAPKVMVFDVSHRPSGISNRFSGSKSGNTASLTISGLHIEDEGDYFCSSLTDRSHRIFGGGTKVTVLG

Turning to 4E10 (antibody), the IC50 (µg/ml), pseudovirus neutralization in assay [1] is 4.54 µg/mL; in assay [2], 1.01 µg/mL; in [3] it was 8.84 µg/mL; in [4], 6.53 µg/mL; in assay [5] it was 11.9 µg/mL; in assay [6], more than 50 µg/mL. Moreover, the IC50 (µg/ml), pseudovirus neutralization in assay [7] is 3.14 µg/mL; in assay [8], 4.7 µg/mL; in assay [10], 1.58 µg/mL; in assay [11], 2.77 µg/mL; in assay [12] it was 2.17 µg/mL; in assay [13], 9.72 µg/mL. Also, the IC50 (µg/ml), pseudovirus neutralization came to 0.91 µg/mL in assay [14]; 1.14 µg/mL in assay [15]; 1.84 µg/mL in assay [16]; 6.45 µg/mL in assay [17]; 1.69 µg/mL in [18]. Also, the IC50, pseudovirus neutralization in [9] was found to be 0.59 µg/mL.
In the case of 1443_C16 (PG16) (TCN-116) (antibody), the IC50 (µg/ml), pseudovirus neutralization in assay [1] was 0.28 µg/mL; in [2] it was 0.08 µg/mL; in [3] it was 0.01 µg/mL; in assay [4], 1.21 µg/mL; in assay [5], 1.16 µg/mL; in assay [6] it was 0.11 µg/mL. The IC50 (µg/ml), pseudovirus neutralization was 0.04 µg/mL in assay [7]; 2.55 µg/mL in assay [8]; 0.01 µg/mL in assay [10]; 0.02 µg/mL in assay [11]; 24 µg/mL in assay [12]; more than 50 µg/mL in assay [13]. The IC50 (µg/ml), pseudovirus neutralization in assay [14] is 0.01 µg/mL; in assay [15], 0.02 µg/mL; in assay [16], more than 50 µg/mL; in assay [17], 0.004 µg/mL; in assay [18], 0.01 µg/mL. Moreover, the IC50, pseudovirus neutralization in assay [9] is more than 50 µg/mL.
On to 1495_C14 (PGC14) (antibody), for which the IC50 (µg/ml), pseudovirus neutralization in assay [1] is 46 µg/mL; in assay [2], more than 50 µg/mL; in assay [3], more than 50 µg/mL; in assay [4], more than 50 µg/mL; in assay [5], more than 50 µg/mL; in assay [6], more than 50 µg/mL. Also, the IC50 (µg/ml), pseudovirus neutralization in assay [7], in [8], in assay [10], in assay [11], in assay [12] and in assay [13] was more than 50 µg/mL throughout. In addition, the IC50 (µg/ml), pseudovirus neutralization was more than 50 µg/mL in [14]; more than 50 µg/mL in assay [15]; more than 50 µg/mL in [16]; more than 50 µg/mL in assay [17]; 27 µg/mL in assay [18]. This substance also returned an IC50, pseudovirus neutralization in [9] of more than 50 µg/mL.
For b12 (antibody), the IC50 (µg/ml), pseudovirus neutralization was more than 50 µg/mL in assay [1]; more than 50 µg/mL in assay [2]; more than 50 µg/mL in assay [3]; 3.77 µg/mL in assay [4]; more than 50 µg/mL in assay [5]; more than 50 µg/mL in assay [6]. Besides, the IC50 (µg/ml), pseudovirus neutralization in [7] is more than 50 µg/mL; in assay [8], more than 50 µg/mL; in [10] it was more than 50 µg/mL; in [11], 2.59 µg/mL; in [12] it was 45.6 µg/mL; in assay [13], more than 50 µg/mL. The IC50 (µg/ml), pseudovirus neutralization is 7.75 µg/mL in assay [14]; more than 50 µg/mL in assay [15]; more than 50 µg/mL in assay [16]; more than 50 µg/mL in assay [17]; more than 50 µg/mL in assay [18]. In [9], this substance registered an IC50, pseudovirus neutralization of 4.25 µg/mL.

Source of the values: patent US20250320281A1.
